Assay results reported in the DeepSol protein solubility set.

assay: soluble on expression in E. coli; label from the status in PepcDB or PDB records

Row | Sequence | soluble on expression in E. coli
1 | MGSDKIHHHHHHKKVIKTMMIAGQDGSHYWRGACEAMKQILENSGMFKVDFVFTPDFGGDINTFKPDFAKYNLVVVNYGGEVWPEPVQKAFENYVADGGGVVIIHSSVVPMAGWKAYNEIIGMGAWEGRNEKDGPYLYWKEGKYVYDYTPGYAGYHGLQHETILEHRAPEHPILKGLPIRWKHFKDEIYTRLRGPVRNVEILATAYERGRHEPLMWTVKWGKGRVFVDLLGHCGNDPNMIYSMECTGFQVTLLRGAEWAATGEVTQEAPRDFPLEDTCTLRPEFKAPFHATN | not soluble
2 | MGSDKIHHHHHHKLFAAHGVDKVRLTGGEPTIRKDIVHIVEGISSTPGIKEVGITTNGLVLQRFLPQLRDAGLTKINISIDSLDREKFAKMTRRDGFDKVWKAIELARGYYPKVKLNVVVLKHQNENEVVDFVNLTKDRNLDVRFIEFMPFGGNEFKNDNFIGYREMLNLIVDKYGDGVIRLSDSPNDTTKAYKIDGFQGQFGFITSMSDHFCNTCNRLRITADGNL | not soluble
3 | MGSDKIHHHHHHLDELRSGLDKPSHFRLGLAMWSHSNWQESVYGHGIKQAERLARYATIFNTVEGNTSFYATPAQQTVMNWHSATPDDFRFTFKLPQTITHQRLLQHCGQELKDFFQVMAPLIDKTGIWKIQLPAHFGPENLPVLAQFLNQVPQGLTYGVEVRHAAFFAKGDAERALNRLLIDKKVNRIIMDSRPLFALPPSNAAIIDAHKKKPRVPVHAIATANNPVVRFIGQPDDAVAQLAQQGVSALPKNNDAFFDNWLAQLPLWLAEGREPYLFIHTPDNETAPELAIRLYQTLRSQIAAQIQLAELSLLEKIPEETSTQMGLAW | not soluble
4 | MGSDKIHHHHHHLDFRLLRYFVAVAEELHLARAAERLGIEQSPVSRAMRDLESQLGVQLFDRSTRLTRLTWAGQVFLGECRRVMATVEQAVKSAKAAAQGYQGHLRIAICDSLAQPRIATLLARSREEEPELEIRVFELPFAQQLKMLHDDLLDIGFALSNAVHDGLVAEPVWTDPLSVIVPARHPLLAHVQVPLPEALKFPLVLCHPESGSGCRHQIQALLQDAGTPLKLVDEVTSLGVMLTLVGAGYGIGFAIASQVQTLQRPDISIRPLAGTPPMLSTYLLRRRGEPSEPMRRFIERVKDGAAPVDDEPVL | not soluble
5 | MGSDKIHHHHHHLELSSHFTPEKIQVGISSCLLGQKVRFDGGHKNSYYCDVTLREHVEFVPVCPEMSIGLGAPRKSIRQVRDGDTLLIQSGDGSLDVTDKLNTFSQQKVAELDFLGGYILCAKSPTCGMERVTEYKIGTNNGSKAGVGVFAKVLMETYPHLPVEEEGRLNDLVLRENFITRLYAYHDWFSMLASGLTKHKLIQFHSRYKYLIMAHSPKWYRALGPILADIQDLSASADAYFDGFMTALKIKATRKNHTSTLQHIQGYFKKHLSAGQKQELSESIDKYRQGLLPLLVPITLINHYLREFPTPYIESQVYLNPHPEELKLRYAY | not soluble
6 | MGSDKIHHHHHHLGDHTLNQVTDTPLSQQHITQHTQVAPSRLAAAGLSASIMLLKRILKPFEHVQRHRHSWGQVIYASQGVLSVITPAGRYIVPPEQAVWVPPFVDHEVIALSQVQLSSLYLDDTQIGGFPPCCTCLNVKPVLQLLLQEVNAFMKSEAGLIDPDFKDSVMRLLMVIRDFMVLAPKVALDLPYPKDKKLLRITEALLADPSEQRTLVDWQREVGASARTLARLFKQQTGLSYSQWLQRLRLQVAIQMLSRGESVLTTALSLGYASGSAFGYMFRQLMGVAPSQYLLAQSTLPKVQCQK | not soluble
7 | MGSDKIHHHHHHLITVTDLSLQIGSRTLYSDVNLKFTPGNCYGIIGANGAGKSTFLKLLEGKMEPTTGSISMGPNERMSSLNQDHFAFEDFSVMETVIQGHQKLYQVMKERDALYAKADFSEEDGVKAAELETEFAELDGWNAEADAAQLLQSMSIPEDMHQKQMSELAESDKVKVLLAQALFGNPDTLLLDEPTNGLDVHTTAWLENFLADYENIVLVVSHDRHFLNQVCTQMCDVDRGQIKLYVGNYDFWYESSKLATELARQQNAKKEEQIKQLQEFIARFSANASKSKQATSRKKQLDKISLDDIKPSSRKYPYIKFEMNRDLGNDLLRVDNVSYKSGDEQLLDNVSFIIRPGDKVAFLSRNTRATTALMEIIAGRLEPDSGTVTWGQTTSFNYMSRDLNANFDNDELTILDWLRQYADKEHDDNTFLRGFLGRMLFSGDEINKQIKVLSGGEKVRCQLSRMMLEAANVLVMDDPTNHLDLESITALNEAMENYPGSILFTSHDHEFIQTIANHIIEVGPKGVVARADISYDDFLAHPTVQEQVAKIY | not soluble
8 | MGSDKIHHHHHHLIYDVVIAGGGPVGLFLACELRLAGLPVLVLEQAEDPGSPLKRLPFGLRGLSAPTLEAFYRRGMLNEIAAPQRAKDDSGSSVPNAAHWMQQQRRPGGHFAGIQFYYDNIDTSKWPYRLPGPAGTSMAVEMEHIESVLTARAIALGVEIRRGLSVDGFDQSEEGVTVHAGSEIFRGRWLVGCDGGRSTVRRIGGFDFVGTDPEFTGYSVQVEMADPEKLKPGRHYTPTGMYTYQKPGTIAMVDFDGGAFHRTQPITLDHVQAVLRHISNTDVTVTALQLATTWTDRAYHATTYRKGRVLLAGDAAHIHSPLGGQGLNLGLGDAMNLGWKLAATVRDDAPAGLLDSYTSERHPVGAQVLDWSRAQVAIMRPSRSSRALEAIMRDLIDTRDGATYFAERVWGTALRYDLGSSHTLVGRSAPDFELIDGTRLGELFTKGRGLLLDFDALPSLQALASRWSDRITYVASDVKDRLGVSAVLVRPDGFVAWAGEASPNHDEATQAASQWFGKPEEEGRSPA | not soluble
9 | MGSDKIHHHHHHLLVKRARLIVGNCWYLLHRIPVEIKDNSQYDIKLSDFGLSEFAESAKFDPVLCGTGPYMSGYRLEGVQGYQHSYVDDVWALAVCLFFLLYNEWPFRKRDGNVKDLLGFDPSQMWVPFPQGCRITAKRVGQGLIIENVNWPDASGDFSNYKGYDLLSYVKDQSVLEFSKVGGEIYEFRAGDDVEQINHQMNAALTEHECFIRFPGQEEDRKRRFRNEVLAGIREYWIQSDIEYGSGTRKQDLLESLATGSTEHSILQKLRVLPAYKSARKRSAEQSELGMLSFGLSGILKNSK | not soluble
10 | MGSDKIHHHHHHLNAKIVCVSNKQLTISLDDFSGPLDLLLHLIRTQELDIFDLPIAKVTDQFLSFIDNQLNPSLDSAGEYLYMASTLIRIKSRFLLPTVKNEQEDEKEEDPRNELVNALIEYECYQAVTQDMSELEHSRSLSFTRPVAKIPENIEIKPLSAGVTLQDLQKAFLEIANRQKDLHPKKRTIERENFSVADKINEIKTFFGQKKLDSKIEFQYLFKLSSSNDEMITTFLAILELAKDHFILLSQNDEQQIFLTKGEMNA | not soluble
11 | MGSDKIHHHHHHLNIAVNTRLLLEDRLEGIGWFTYETLKRITEQNPQHTFHFFFDRPYNDKFVFGKNVVPHVLFPQARHPFLWYIFFEWSIPFMLRKVKADAFISTDGYMPKSSKVKVLNVIHDINFEHRPQDLPKRVANYYKKNMPLFAQKATRLATVSEFSKQDLVKTYNIPADKIDVVYNGCNAAFKPIPEAEQVKVRYKHSAGRPFFLYIGSMHPRKNILNLMKAFEVFKKMTNCDMKLLLVGKAMWSNKDIQSLYHTLIYRHDIHFLGHIKTAELARIMASAHALTFVPYFEGFGIPILEALNCGVPVITSNTTSLPEVAGKAALLVNPESSEAIANAMIQIYKAPHIREKLLAQGVIQRQKFSWDKTAALLWASFEKMMR | not soluble
12 | MGSDKIHHHHHHLPQLLSAMRGPGTRSPDMPYARKTLAQIRSDAMADIAAALQGSDPLLRFAALKIIGVVLAGMTNEEYGYLDWIAKQTNPFTADDEYLEAWGALKKVYRKDASAASLSATFTGVAGKLLDDGTPVVRSDGATYTTSGTQTVVGTSVTVTIVADVAGAAGNADPGTVVALDIAVDGIQSTGAVIGTVSSGADIEDQEDYRARVLAKYQQPPQGGAAPDYVEWATDVAGVTRAWCAPNGFGAGTVVVYVMLDDAQAAHGGFPQGTDGVSQHDQGPGGLPRGTVATGDQLVVADAIVTLQPGTALVWICSPVENVLSFELTGSAGWSTAIRNAVKAQISDVFFRNGDPRGGTIDRSDINSAIAAVPGTAGFVITSITGVISGTPTTYPANITGSFGSLPVLGEVTFG | not soluble
13 | MGSDKIHHHHHHLRNVLPKDALLTAVDISDSMMDVARAKFLPHEQVTFQVADATTLPFENEAFDAVVCQFGVMFFDKDTAFREAYRTLGRGGRYLFSVWDSRRYNPFASLAFEVLKQFFPLNPPRFLEAPVSSFEIDPIKEALIQSGFERIVISVQGREHDILDVRTFARGLVFSPVIEEIRERGGVEPEDIIAALAEALKREYGSRPTRYPMQAILFEAEKP | not soluble
